The assay concerns the target LCMV clone 13 nucleocapsid protein (NP), purified recombinant (Lymphocytic choriomeningitis virus, …, UniProt P09992, strain). Briefly: ELISA.

B1: most expanded antibody variant of the NP-specific, second most expanded IgG clone (antibody, V domains shown)
VH: EVQLQQSGPELVKPGASVKMSCKASGYTFTDYNMHWVKQSHGKSLEWIGYINPNNGGTSYNQKFKGKATLTVNKSSSTAYMELRSLTSEDSAVYYCAREGGYWYFDVWGTGTTVTVSS
VL: DIVMTQSHKFMSTSVGDRVSITCKASQDVSTAVAWYQQKPGQSPKLLIYWASTRHTGVPDRFTGSGSGTDYTLTISSVQAEDLALYYCQQHYSTPFTFGSGTKLEIK
For B1, the binding result is “binds”.

These data come from publication doi:10.1101/2021.01.29.428852 (bioRxiv, 2021).
